Laboratory results reported in patent US20240425556A1, “MYOPEPTIDES AND METHODS OF USE IN TREATING HEART FAILURE” (University of Cincinnati, priority 2021, published 2024).
Blank lines part the entries; values can stand above or below the molecule they belong to.

B1: recombinant S2^126 (proximal 126 amino acid sub-fragment 2 region of myosin) with 6X his-tag (other)
chain: PLLKSAETEKEMANMKEEFGRVKDALEKSEARRKELEEKMVSLLQEKNDLQLQVQAEQDNLNDAEERCDQLIKNKIQLEAKVKEMTERLEDEEEMNAELTAKKRKLEDECSELKKDIDDLELTLAK
notes: The position of the his-tag is unknown; also called mouse myosin S2; not shown: 6X his-tag
B2: PLLKSAETEKEMANMKEEFGRVKDALEKSEARRKELEEKMVSLLQEKNDLQLQVQAEQDNLNDAEERCDQLIKNKIQLEAKVKEMTERLEDEEEMNAELTAKKRKLEDECSELKKDIDDLELTLAK (protein, listed as Mus musculus)
chain: B1 chain
modifications: 6X His tag
notes: recombinant proximal 126 amino acid fragment of myosin S2 with 6X his-tag, expressed in E. coli
B3: recombinant C0-C2 protein (C0, C1 and C2 domains of cardiac myosin binding protein-C) with 6X his-tag (other)
chain: MPEPGKKPVSAFNKKPRSAEVTAGSAAVFEAETERSGVMVRWQRDGSDITANDKYGLAAEGKRHTLTVRDASPDDQGSYAVIAGSSKVKFDLKVTEPAPPEKAESEVAPGAPEEVPAPATELEESVSSPEGSVSVTQDGSAAEHQGAPDDPIGLFLMRPQDGEVTVGGSIVFSARVAGASLLKPPVVKWFKGKWVDLSSKVGQHLQLHDSYDRASKVYLFELHITDAQTTSAGGYRCEVSTKDKFDSCNFNLTVHEAIGSGDLDLRSAFRRTSLAGAGRRTSDSHEDAGTPDFSSLLKKRDSFRRDSKLEAPAEEDVWEILRQAPPSEYERIAFQHGVEACHRPLKRLKGMKQDEKKSTAFQKKLEPAYQVNKGHKIRLTVELADPDAEVKWLKNGQEIQMSGSKYIFESVGAKRTLTISQCSLADDAAYQCVVGGEKCSTELFVKEP

Key:
[1] = molecular target: T1, S2^126-C0-C2 binding (Homo sapiens, UniProt Q14896); assay: Solid phase binding assay (SPBA), competition for S2^126-C0-C2 binding; settings: for ability to compete for S2^126-C0-C2 binding: SPBA, FIGS. 3A and 3B
T1 construct: 6X His; made in house; host or cells: E. coli BL21
T1 sequence (Q14896 1-451 limits assumed): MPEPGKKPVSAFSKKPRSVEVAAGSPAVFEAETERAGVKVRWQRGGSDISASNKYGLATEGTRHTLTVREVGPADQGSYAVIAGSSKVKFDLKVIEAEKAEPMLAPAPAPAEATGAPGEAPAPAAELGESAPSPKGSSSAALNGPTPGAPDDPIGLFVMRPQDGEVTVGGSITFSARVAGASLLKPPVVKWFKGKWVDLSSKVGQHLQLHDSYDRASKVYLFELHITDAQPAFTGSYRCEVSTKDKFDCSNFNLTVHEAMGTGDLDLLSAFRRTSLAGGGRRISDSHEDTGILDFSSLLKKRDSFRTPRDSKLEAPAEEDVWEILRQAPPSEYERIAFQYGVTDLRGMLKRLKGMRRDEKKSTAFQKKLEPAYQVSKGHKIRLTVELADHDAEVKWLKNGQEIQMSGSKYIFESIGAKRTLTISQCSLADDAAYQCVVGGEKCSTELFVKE
Description: Peptides of Table 1 were tested in vitro to determine whether they compete for binding in the interaction between S2^126 and the C0-C2 protein. In these experiments, recombinant S2^126 and C0-C2 protein with 6X his-tags were bacterially expressed in BL21 E. coli and then purified through Talon© metal affinity columns. A solid phase binding assay (SPBA) was then performed, whereby 20 μM of the C0-C2 protein was adsorbed onto wells of a 96-well microtiter plate. Then, 20 μM of S2^126, along with increasing concentrations of selected experimental peptides from Table 1, ranging from 0-20 μM, were added.
The following procedure identified the competitive nature of the tested experimental peptides from Table 1. […] The Alexa Fluor 568© secondary antibody (anti-rabbit) would then bind to the primary antibody to give a relative positive fluorescence of 1.0. Conversely, if the experimental peptide successfully competed with the S2^126-C0-C2 binding. then the S2^126 site would not be available for binding by the primary antibody. Therefore, the secondary antibody would also fail to bind, leading to a decrease in the relative fluorescence below 1.0. As a result, for a non-competing peptide, the relative fluorescence approaches 1.0, as observed by S2^126-C0-C2 binding. For a competing peptide, a decay in the relative fluorescence is observed. This SPBA assay was used to screen peptides for efficacy in disrupting the interaction between S2^126-C0-C2.

[2] = system: skinned papillary fibers from mouse hearts; assay: Maximal force (Fmax) of skinned papillary muscle fibers versus calcium concentration; settings: for effect on muscle / contractile function: summary statement
Description: The ability of the experimental peptides to increase or otherwise affect contractility in the heart muscle system was tested using skinned papillary fibers from mouse hearts. In this ex vivo experiment, cardiac papillary fibers from mouse hearts were isolated and skinned overnight in 1% Triton X-100 low calcium buffer supplemented with ATP, creatine phosphate, and magnesium chloride. Because skinned muscle fibers are devoid of sarcolemma, nuclei, and sarcoplasmic reticulum, the fibers can only contract if supplemented with calcium, magnesium chloride, ATP, and creatine phosphate. This assay allows for the opportunity to screen for compounds or molecules that affect the contractility of the muscle.
Skinned papillary muscle fibers were cycled through buffers containing a constant concentration magnesium chloride, ATP, creatine phosphate, but increasing concentrations of calcium. As the muscle fiber goes from buffers containing low concentrations of calcium to buffers containing high concentrations of calcium, the force developed increases with increasing concentration. Thus, plotting the force produced versus calcium concentration provides a sigmoidal curve, yielding the maximal force produced (Fmax) and the midpoint calcium concentration where the force produced is exactly half of the force produced at high calcium concentration. This is useful for measuring the calcium sensitivity (pCa50) of the muscle fibers.
The experiment and measurement of Fmax, pCa50, and ktr was performed for a muscle in the absence of the experimental peptide and then in the presence of 10 μM and 20 μM of the experimental peptide.

[3] = molecular target: B3; assay: ITC; 300 µM S2^126 titrated into 20 µM C0-C2
[4] = molecular target: T2, C0-C2 protein (Homo sapiens, UniProt Q14896); assay: Isothermal titrating calorimetry (ITC); type: binding; settings: 300 μM S2^126 titrated to 20 μM C0-C2 protein; read-out: dissociation constant (kd)
T2 construct: 6X His; made in house; host or cells: E. coli BL21
T2 sequence (Q14896 1-451 limits assumed): as above
Description: Isothermal titrating calorimetry (ITC) was used to validate and verify the results from the SPBA assays of Example 2. In ITC experiments, the heat of binding between two proteins is measured by titrating one protein with the other protein and then measuring the heat released or absorbed through a reference fluid with a constant temperature. By titrating 300 μM of S2^126 to 20 μM of C0-C2 protein, the stoichiometry (η) of 0.98 and dissociation constant (kd) of 4.7 μM for S2^126-C0-C2 binding were determined.
Using the above stoichiometry and dissociation constant values as controls, all of the experimental peptides were titrated at 300 μM with 20 μM of C0-C2 protein and compared with the above S2^126 control.

[5] = molecular target: B3; assay: solid phase binding assay; peptide 0-20 µM against 20 µM S2^126 on adsorbed C0-C2
[6] = molecular target: B1; assay: ITC; 300 µM S2^126 titrated into 20 µM C0-C2
[7] = molecular target: B3; assay: solid phase binding assay, competition: C0-C2 adsorbed on the plate, 20 µM S2^126 as competitor plus rising peptide; bound S2^126 detected with rabbit anti-S2^126 and Alexa Fluor 568 secondary antibody (Fluorescence Endpoint λ603, relative)
[8] = molecular target: cardiac myosin binding protein-C (cMyBP-C) in skinned papillary muscle fibers from mouse hearts (mouse, UniProt O70468 1-1270); assay: cell-based or functional assay
[9] = molecular target: B3; assay: solid phase binding assay; competition with S2^126 on adsorbed C0-C2
[10] = at 20 μM peptide, 20 μM S2^126, 20 μM C0-C2 adsorbed

ability to compete for S2^126-C0-C2 binding [1]: unable to compete
Molecule: ETEKEMAMVSLLQAEERCDQDIDDLELTLAK [Amg 23050, scramble control peptide, reference compound]

ability to compete for S2^126-C0-C2 binding [1]: effectively compete
relative fluorescence [1, 10]: 0
Molecule: VKEMTERLEDEEEMNAELTAKKRKLEDECSELKKDIDDLELTLAK (listed as Mus musculus) [Amg 23006]
effect on muscle / contractile function [2]: successfully improved muscle function

ability to compete for S2^126-C0-C2 binding [1]: unable to compete
Molecule: RKELEEKMVSLLQEKNDLQLQVQAEQDNLNDAEERCDQLIKNK (listed as Mus musculus) [Amg 23004]

ability to compete for S2^126-C0-C2 binding [1]: effectively compete
relative fluorescence ([1]; at peptide concentrations above 15 μM): 0
Molecule: VKEMTERLEDEEEMNAELTAKK (listed as Mus musculus) [Amg 27119]
increase of maximal force produced by the fibers ([2]; peptide 10 μM and 20 μM versus control, particularly at higher calcium concentrations): about 30%
effect on muscle / contractile function [2]: highly effective in improving contractile function

ability to compete for S2^126-C0-C2 binding [1]: effectively compete
relative fluorescence [1, 10]: 0
Molecule: CDQLIKNKIQLEAKVKEMTERLEDEEEMNAELTAKK (listed as Mus musculus) [Amg 23005]
effect on muscle / contractile function [2]: successfully improved muscle function

ability to compete for S2^126-C0-C2 binding [1]: unable to compete
Molecule: PLLKSAETEKEMANMKEEFGRVKDALEKSEARRKELEEKM (listed as Mus musculus) [Amg 23003]

Molecule: B1
stoichiometry (η) [3]: 0.98

Molecule: B2
Kd [4]: 4.7 µM

relative fluorescence [5]: ~1 relative fluorescence
Molecule: PLLKSAETEKEMANMKEEFGRVKDALEKSEARRKELEEKM [Amg 23003]

Molecule: B3
Kd [6]: 4.7 µM

IC50 (read off the curve) [7]: ~6 µM
maximal force produced by skinned papillary muscle fibers (Fmax) [8]: ~30%
rate of force redevelopment (ktr) at pCa 5.7 [8]: 2.5 fold
Molecule: VKEMTERLEDEEEMNAELTAKK (also called myopeptide) [Amg 27119 (mouse myosin S2 subset)]

relative fluorescence [5]: ~1 relative fluorescence
Molecule: ETEKEMAMVSLLQAE [Amg 27120]

relative fluorescence [5]: ~1 relative fluorescence
Molecule: DEEEMNAELTAKKR [Amg 27117]

relative fluorescence [5]: ~1 relative fluorescence
Molecule: ETEKEMAMVSLLQAEERCDQDIDDLELTLAK [Scramble control Amg 25030]

maximal force produced by skinned papillary muscle fibers (Fmax) [8]: 13%
rate of force redevelopment (ktr) at pCa 5.7 [8]: 1.5 fold
stoichiometry [9]: 1
Molecule: VKEMTERLEDEEEMNAELTAKKRKLEDECSELKKDIDDLELTLAK [Amg 23006]

relative fluorescence [5]: ~1 relative fluorescence
Molecule: RKELEEKMVSLLQEKNDLQLQVQAEQDNLNDAEERCDQLIKNK [Amg 23004]

maximal force produced by skinned papillary muscle fibers (Fmax) [8]: 13%
rate of force redevelopment (ktr) at pCa 5.7 [8]: 1.5 fold
stoichiometry [9]: 1
Molecule: CDQLIKNKIQLEAKVKEMTERLEDEEEMNAELTAKK [Amg 23005]

relative fluorescence [5]: ~1 relative fluorescence
Molecule: KLEDECSELKKDIDDLELTLAK [Amg 27118]
